Tests used:
Experiment in all cases: cell-based or functional assay
[1] = biological target: HIV-1 Env of pseudovirus 1012_11_TC21_3257 (HIV-1)
[2] = biological target: HIV-1 Env of pseudovirus 191084 B7-19 (HIV-1)
[3] = biological target: HIV-1 Env of pseudovirus 191955_A11 (HIV-1)
[4] = biological target: HIV-1 Env of pseudovirus 211-9 (HIV-1)
[5] = biological target: HIV-1 Env of pseudovirus 249M B10 (HIV-1)
[6] = biological target: HIV-1 Env of pseudovirus 6244_13_B5_4576 (HIV-1)
[7] = biological target: HIV-1 Env of pseudovirus 6535.3 (HIV-1)
[8] = biological target: HIV-1 Env of pseudovirus 7030102001E5(Rev-) (HIV-1)
[9] = biological target: HIV-1 Env of pseudovirus 89-F1_2_25 (HIV-1)
[10] = biological target: HIV-1 Env of pseudovirus BJOX009000.02.4 (HIV-1)
[11] = biological target: HIV-1 Env of pseudovirus BJOX010000.06.2 (HIV-1)
[12] = biological target: HIV-1 Env of pseudovirus C4118.c09 (HIV-1)
[13] = biological target: HIV-1 Env of pseudovirus CAP45.2.00.G3 (HIV-1)
[14] = biological target: HIV-1 Env of pseudovirus CNE19 (HIV-1)
[15] = biological target: HIV-1 Env of pseudovirus CNE53 (HIV-1)
[16] = biological target: HIV-1 Env of pseudovirus CNE58 (HIV-1)
[17] = biological target: HIV-1 Env of pseudovirus CNE8 (HIV-1)
[18] = biological target: HIV-1 Env of pseudovirus Ce0682_E4 (HIV-1)
[19] = biological target: HIV-1 Env of pseudovirus Ce1086_B2 (HIV-1)
[20] = biological target: HIV-1 Env of pseudovirus Ce1172_H1 (HIV-1)
[21] = biological target: HIV-1 Env of pseudovirus Ce2060_G9 (HIV-1)
[22] = biological target: HIV-1 Env of pseudovirus Ce703010054_2A2 (HIV-1)
[23] = biological target: HIV-1 Env of pseudovirus HIV-001428-2.42 (HIV-1)
[24] = biological target: HIV-1 Env of pseudovirus P1981_C5_3 (HIV-1)
[25] = biological target: HIV-1 Env of pseudovirus Q23.17 (HIV-1)
[26] = biological target: HIV-1 Env of pseudovirus Q461.e2 (HIV-1)
[27] = biological target: HIV-1 Env of pseudovirus RHPA4259.7 (HIV-1)
[28] = biological target: HIV-1 Env of pseudovirus SC422661.8 (HIV-1)
[29] = biological target: HIV-1 Env of pseudovirus T250-4 (HIV-1)
[30] = biological target: HIV-1 Env of pseudovirus T255-34 (HIV-1)
[31] = biological target: HIV-1 Env of pseudovirus THRO4156.18 (HIV-1)
[32] = biological target: HIV-1 Env of pseudovirus TRJO4551.58 (HIV-1)
[33] = biological target: HIV-1 Env of pseudovirus WEAU_d15_410_787 (HIV-1)
[34] = biological target: HIV-1 Env of pseudovirus WITO4160.33 (HIV-1)
[35] = biological target: HIV-1 Env of pseudovirus ZM214M.PL15 (HIV-1)
[36] = biological target: HIV-1 Env of pseudovirus ZM233M.PB6 (HIV-1)
[37] = biological target: HIV-1 Env of pseudovirus ZM53M.PB12 (HIV-1)

PGDM1400 (antibody)
neutralization IC50 [1]: 0.049 µg/mL | neutralization IC80 [1]: 0.23 µg/mL | neutralization IC50 [2]: < 0.001 µg/mL | neutralization IC80 [2]: 0.007 µg/mL | neutralization IC50 [3]: 0.001 µg/mL | neutralization IC80 [3]: 0.021 µg/mL | IC50 (Titer in TZM.bl cells) [4]: 0.088 µg/mL | IC80 (Titer in TZM.bl cells) [4]: 0.393 µg/mL | neutralization IC50 [5]: 0.039 µg/mL | neutralization IC80 [5]: 0.786 µg/mL | neutralization IC50 [6]: > 50 µg/mL | neutralization IC80 [6]: > 50 µg/mL | neutralization IC50 [7]: > 50 µg/mL | neutralization IC80 [7]: > 50 µg/mL | neutralization IC50 [8]: > 50 µg/mL | neutralization IC80 [8]: > 50 µg/mL | IC50 (Titer in TZM.bl cells) [9]: 0.001 µg/mL | IC80 (Titer in TZM.bl cells) [9]: 0.005 µg/mL | IC50 (Titer in TZM.bl cells) [10]: 0.443 µg/mL | IC80 (Titer in TZM.bl cells) [10]: 1.29 µg/mL | IC50 (Titer in TZM.bl cells) [11]: 0.605 µg/mL | IC80 (Titer in TZM.bl cells) [11]: 5.87 µg/mL | IC50 (Titer in TZM.bl cells) [12]: 0.002 µg/mL | IC80 (Titer in TZM.bl cells) [12]: 0.005 µg/mL | neutralization IC50 [13]: < 0.001 µg/mL | neutralization IC80 [13]: 0.002 µg/mL | neutralization IC50 [14]: 0.001 µg/mL | neutralization IC80 [14]: 0.007 µg/mL | neutralization IC50 [15]: 0.077 µg/mL | neutralization IC80 [15]: 0.246 µg/mL | neutralization IC50 [16]: 0.004 µg/mL | neutralization IC80 [16]: 0.014 µg/mL | IC50 (Titer in TZM.bl cells) [17]: < 0.001 µg/mL | IC80 (Titer in TZM.bl cells) [17]: 0.01 µg/mL | neutralization IC50 [18]: 0.01 µg/mL | neutralization IC80 [18]: 0.043 µg/mL | neutralization IC50 [19]: > 50 µg/mL | neutralization IC80 [19]: > 50 µg/mL | neutralization IC50 [20]: 0.021 µg/mL | neutralization IC80 [20]: 0.06 µg/mL | neutralization IC50 [21]: 0.001 µg/mL | neutralization IC80 [21]: 0.007 µg/mL | neutralization IC50 [22]: 0.015 µg/mL | neutralization IC80 [22]: 0.26 µg/mL | neutralization IC50 [23]: < 0.001 µg/mL | neutralization IC80 [23]: 0.027 µg/mL | IC50 (Titer in TZM.bl cells) [24]: 0.104 µg/mL | IC80 (Titer in TZM.bl cells) [24]: 4.6 µg/mL | neutralization IC50 [25]: < 0.001 µg/mL | neutralization IC80 [25]: 0.003 µg/mL | neutralization IC50 [26]: 0.089 µg/mL | neutralization IC80 [26]: 0.572 µg/mL | neutralization IC50 [27]: 0.447 µg/mL | neutralization IC80 [27]: 2.19 µg/mL | neutralization IC50 [28]: 0.436 µg/mL | neutralization IC80 [28]: 6.53 µg/mL | neutralization IC50 [29]: < 0.001 µg/mL | neutralization IC80 [29]: < 0.001 µg/mL | IC50 (Titer in TZM.bl cells) [30]: 0.654 µg/mL | IC80 (Titer in TZM.bl cells) [30]: > 50 µg/mL | neutralization IC50 [31]: 0.072 µg/mL | neutralization IC80 [31]: 0.348 µg/mL | neutralization IC50 [32]: > 50 µg/mL | neutralization IC80 [32]: > 50 µg/mL | neutralization IC50 [33]: 0.103 µg/mL | neutralization IC80 [33]: 1.37 µg/mL | neutralization IC50 [34]: < 0.001 µg/mL | neutralization IC80 [34]: 0.008 µg/mL | neutralization IC50 [35]: > 50 µg/mL | neutralization IC80 [35]: > 50 µg/mL | neutralization IC50 [36]: < 0.001 µg/mL | neutralization IC80 [36]: 0.001 µg/mL | neutralization IC50 [37]: 0.002 µg/mL | neutralization IC80 [37]: 0.011 µg/mL

PGT145 (antibody)
neutralization IC50 [1]: 0.009 µg/mL | neutralization IC80 [1]: 0.025 µg/mL | neutralization IC50 [2]: 0.028 µg/mL | neutralization IC80 [2]: 0.345 µg/mL | neutralization IC50 [3]: < 0.001 µg/mL | neutralization IC80 [3]: < 0.001 µg/mL | IC50 (Titer in TZM.bl cells) [4]: 0.129 µg/mL | IC80 (Titer in TZM.bl cells) [4]: 0.923 µg/mL | neutralization IC50 [5]: 0.947 µg/mL | neutralization IC80 [5]: 41.3 µg/mL | neutralization IC50 [6]: 7.27 µg/mL | neutralization IC80 [6]: 44.5 µg/mL | neutralization IC50 [7]: > 50 µg/mL | neutralization IC80 [7]: > 50 µg/mL | neutralization IC50 [8]: > 50 µg/mL | neutralization IC80 [8]: > 50 µg/mL | IC50 (Titer in TZM.bl cells) [9]: 0.8 µg/mL | IC80 (Titer in TZM.bl cells) [9]: 20 µg/mL | IC50 (Titer in TZM.bl cells) [10]: 0.117 µg/mL | IC80 (Titer in TZM.bl cells) [10]: 0.745 µg/mL | IC50 (Titer in TZM.bl cells) [11]: > 50 µg/mL | IC80 (Titer in TZM.bl cells) [11]: > 50 µg/mL | IC50 (Titer in TZM.bl cells) [12]: < 0.001 µg/mL | IC80 (Titer in TZM.bl cells) [12]: 0.004 µg/mL | neutralization IC50 [13]: 0.001 µg/mL | neutralization IC80 [13]: 0.007 µg/mL | neutralization IC50 [14]: 0.103 µg/mL | neutralization IC80 [14]: 1.13 µg/mL | neutralization IC50 [15]: 0.006 µg/mL | neutralization IC80 [15]: 0.084 µg/mL | neutralization IC50 [16]: 0.183 µg/mL | neutralization IC80 [16]: 7.41 µg/mL | IC50 (Titer in TZM.bl cells) [17]: 0.272 µg/mL | IC80 (Titer in TZM.bl cells) [17]: 2.24 µg/mL | neutralization IC50 [18]: 33.6 µg/mL | neutralization IC80 [18]: > 50 µg/mL | neutralization IC50 [19]: > 50 µg/mL | neutralization IC80 [19]: > 50 µg/mL | neutralization IC50 [20]: 0.26 µg/mL | neutralization IC80 [20]: 2.06 µg/mL | neutralization IC50 [21]: 0.016 µg/mL | neutralization IC80 [21]: 0.205 µg/mL | neutralization IC50 [22]: > 50 µg/mL | neutralization IC80 [22]: > 50 µg/mL | neutralization IC50 [23]: 0.001 µg/mL | neutralization IC80 [23]: 0.083 µg/mL | IC50 (Titer in TZM.bl cells) [24]: 5.41 µg/mL | IC80 (Titer in TZM.bl cells) [24]: > 50 µg/mL | neutralization IC50 [25]: 1.32 µg/mL | neutralization IC80 [25]: > 50 µg/mL | neutralization IC50 [26]: 7.8 µg/mL | neutralization IC80 [26]: > 50 µg/mL | neutralization IC50 [27]: 0.029 µg/mL | neutralization IC80 [27]: 0.095 µg/mL | neutralization IC50 [28]: 0.024 µg/mL | neutralization IC80 [28]: 0.082 µg/mL | neutralization IC50 [29]: 0.002 µg/mL | neutralization IC80 [29]: 0.039 µg/mL | IC50 (Titer in TZM.bl cells) [30]: > 50 µg/mL | IC80 (Titer in TZM.bl cells) [30]: > 50 µg/mL | neutralization IC50 [31]: 0.01 µg/mL | neutralization IC80 [31]: 0.029 µg/mL | neutralization IC50 [32]: > 50 µg/mL | neutralization IC80 [32]: > 50 µg/mL | neutralization IC50 [33]: 1.95 µg/mL | neutralization IC80 [33]: 31.5 µg/mL | neutralization IC50 [34]: < 0.001 µg/mL | neutralization IC80 [34]: 0.001 µg/mL | neutralization IC50 [35]: > 50 µg/mL | neutralization IC80 [35]: > 50 µg/mL | neutralization IC50 [36]: 0.025 µg/mL | neutralization IC80 [36]: 0.68 µg/mL | neutralization IC50 [37]: 0.367 µg/mL | neutralization IC80 [37]: 11.8 µg/mL

— US20240117018A1
